# T1: Human Siglec-5 (human, UniProt O15389 17-551)
# T1 construct: CHO HuSiglec-5 cell line; also called HuSiglec-5
# T1 sequence: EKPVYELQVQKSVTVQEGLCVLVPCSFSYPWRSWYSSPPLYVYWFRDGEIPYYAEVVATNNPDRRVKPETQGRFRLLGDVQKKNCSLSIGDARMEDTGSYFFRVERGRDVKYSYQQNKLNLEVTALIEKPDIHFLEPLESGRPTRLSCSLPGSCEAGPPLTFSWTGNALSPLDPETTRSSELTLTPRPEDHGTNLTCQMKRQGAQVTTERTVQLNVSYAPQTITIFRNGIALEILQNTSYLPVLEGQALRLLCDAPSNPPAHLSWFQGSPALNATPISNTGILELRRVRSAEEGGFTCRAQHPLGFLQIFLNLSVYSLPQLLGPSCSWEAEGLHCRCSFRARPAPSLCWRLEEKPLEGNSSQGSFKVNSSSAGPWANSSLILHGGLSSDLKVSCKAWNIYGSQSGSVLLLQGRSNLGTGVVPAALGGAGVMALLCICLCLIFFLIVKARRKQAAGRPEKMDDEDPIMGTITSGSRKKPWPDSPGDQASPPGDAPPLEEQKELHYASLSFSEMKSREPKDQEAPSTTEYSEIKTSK
# T2: Human Siglec-10 (human, UniProt Q96LC7 17-697)
# T2 construct: CHO HuSiglec-10 cell line; also called HuSiglec-10
# T2 sequence: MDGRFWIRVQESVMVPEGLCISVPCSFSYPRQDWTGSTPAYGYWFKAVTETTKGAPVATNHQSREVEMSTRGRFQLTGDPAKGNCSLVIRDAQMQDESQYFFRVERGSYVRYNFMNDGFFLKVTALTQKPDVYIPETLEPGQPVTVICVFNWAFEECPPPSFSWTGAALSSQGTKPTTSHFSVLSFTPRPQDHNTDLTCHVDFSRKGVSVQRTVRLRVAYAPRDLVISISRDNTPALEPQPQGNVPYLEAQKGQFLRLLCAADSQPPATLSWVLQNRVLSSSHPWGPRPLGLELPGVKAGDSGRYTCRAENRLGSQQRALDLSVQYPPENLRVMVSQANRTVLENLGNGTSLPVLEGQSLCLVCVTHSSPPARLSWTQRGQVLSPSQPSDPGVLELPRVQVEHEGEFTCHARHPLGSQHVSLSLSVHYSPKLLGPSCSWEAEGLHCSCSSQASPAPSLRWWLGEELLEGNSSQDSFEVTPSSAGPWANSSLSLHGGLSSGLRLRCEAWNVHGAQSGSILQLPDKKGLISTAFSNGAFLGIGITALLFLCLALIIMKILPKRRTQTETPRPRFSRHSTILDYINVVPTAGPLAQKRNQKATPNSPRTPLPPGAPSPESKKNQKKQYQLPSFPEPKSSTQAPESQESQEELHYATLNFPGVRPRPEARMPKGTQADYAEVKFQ
# T3: Human Siglec-11 (human, UniProt Q96RL6 29-698)
# T3 construct: CHO HuSiglec-11 cell line; also called HuSiglec-11
# T3 sequence: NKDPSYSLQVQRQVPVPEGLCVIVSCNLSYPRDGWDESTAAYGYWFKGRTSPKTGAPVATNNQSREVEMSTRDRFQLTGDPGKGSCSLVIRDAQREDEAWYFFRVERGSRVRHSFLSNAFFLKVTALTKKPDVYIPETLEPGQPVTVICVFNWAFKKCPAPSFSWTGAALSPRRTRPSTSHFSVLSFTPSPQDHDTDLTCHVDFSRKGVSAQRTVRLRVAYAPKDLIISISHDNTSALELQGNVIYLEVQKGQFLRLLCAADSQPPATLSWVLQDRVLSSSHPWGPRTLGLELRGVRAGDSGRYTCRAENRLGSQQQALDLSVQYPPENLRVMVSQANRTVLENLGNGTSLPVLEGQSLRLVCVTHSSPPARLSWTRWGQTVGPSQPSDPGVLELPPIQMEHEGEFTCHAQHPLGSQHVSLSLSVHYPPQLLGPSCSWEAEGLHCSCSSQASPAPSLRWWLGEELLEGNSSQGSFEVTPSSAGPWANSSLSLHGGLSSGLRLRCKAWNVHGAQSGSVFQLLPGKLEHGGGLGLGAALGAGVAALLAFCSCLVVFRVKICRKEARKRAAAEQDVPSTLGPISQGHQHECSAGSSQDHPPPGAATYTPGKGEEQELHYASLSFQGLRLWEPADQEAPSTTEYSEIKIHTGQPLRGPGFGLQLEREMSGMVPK
# Key:
# Human Siglec-3 = target: T4, Human Siglec-3 (human, UniProt P20138 18-364); experiment: flow cytometry on CHO HuSiglec-3 cell line
# T4 construct: CHO HuSiglec-3 cell line; also called HuSiglec-3; CD33
# Experimental: (§1) Cells expressing Siglec-3, -5, -6, -8, -10, -11 and -12 were generated and a representative subset of the cross-reactive Siglec-7/9 antibodies were tested by flow cytometry for binding to the cells. Amino acid sequences and Genbank references for Siglec polypeptides used are shown below in Table 1.
# (§2) Briefly, HuSiglec-expressing CHO cell lines (that expressed one of the Siglecs) were used.
# Human Siglec-5 = target: T1, Human Siglec-5; experiment: flow cytometry on CHO HuSiglec-5 cell line
# Experimental: as §1, §2
# Human Siglec-6 = target: T5, Human Siglec-6 (human, UniProt O43699 27-453); experiment: flow cytometry on CHO HuSiglec-6 cell line
# T5 construct: CHO HuSiglec-6 cell line; also called HuSiglec-6
# Experimental: as §1, §2
# Human Siglec-8 = target: T6, Human Siglec-8 (human, UniProt Q9NYZ4 17-499); experiment: flow cytometry on CHO HuSiglec-8 cell line
# T6 construct: CHO HuSiglec-8 cell line; also called HuSiglec-8
# Experimental: as §1, §2
# Human Siglec-10 = target: T2, Human Siglec-10; experiment: flow cytometry on CHO HuSiglec-10 cell line
# Experimental: as §1, §2
# Human Siglec-11 = target: T3, Human Siglec-11; experiment: flow cytometry on CHO HuSiglec-11 cell line
# Experimental: as §1, §2
# Human Siglec-12 = target: T7, Human Siglec-12 (human, UniProt Q96PQ1 19-595); experiment: flow cytometry on CHO HuSiglec-12 cell line
# T7 construct: CHO HuSiglec-12 cell line; also called HuSiglec-12
# Experimental: as §1, §2
# Human Siglec-7 = target: T8, Human Siglec-7 (human, UniProt Q9Y286 19-467); experiment: flow cytometry on Siglec-7-expressing cell line
# T8 construct: Expressed on CHO cells (huSiglec-7-expressing CHO cell line); also called huSiglec-7; CD328
# Human Siglec-9 = target: T9, Human Siglec-9 (human, UniProt Q9Y336 18-463); experiment: flow cytometry on Siglec-9-expressing cell line
# T9 construct: Expressed on CHO cells (huSiglec-9-expressing CHO cell line); also called huSiglec-9; CD329
# T9 sequence (Q9Y336 18-463): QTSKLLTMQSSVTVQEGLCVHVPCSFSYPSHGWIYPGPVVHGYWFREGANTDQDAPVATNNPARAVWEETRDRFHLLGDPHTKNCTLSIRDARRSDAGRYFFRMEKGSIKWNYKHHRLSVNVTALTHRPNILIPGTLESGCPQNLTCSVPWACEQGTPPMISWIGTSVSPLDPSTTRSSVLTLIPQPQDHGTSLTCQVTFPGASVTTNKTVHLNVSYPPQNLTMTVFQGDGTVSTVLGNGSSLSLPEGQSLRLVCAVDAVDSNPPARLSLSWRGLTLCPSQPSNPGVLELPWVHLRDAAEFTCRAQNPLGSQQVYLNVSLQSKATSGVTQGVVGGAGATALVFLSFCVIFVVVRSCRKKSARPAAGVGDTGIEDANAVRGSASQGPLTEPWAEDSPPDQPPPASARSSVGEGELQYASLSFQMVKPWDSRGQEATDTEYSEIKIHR
# T5 sequence (O43699 other isoform, or with tags, fused parts or gaps): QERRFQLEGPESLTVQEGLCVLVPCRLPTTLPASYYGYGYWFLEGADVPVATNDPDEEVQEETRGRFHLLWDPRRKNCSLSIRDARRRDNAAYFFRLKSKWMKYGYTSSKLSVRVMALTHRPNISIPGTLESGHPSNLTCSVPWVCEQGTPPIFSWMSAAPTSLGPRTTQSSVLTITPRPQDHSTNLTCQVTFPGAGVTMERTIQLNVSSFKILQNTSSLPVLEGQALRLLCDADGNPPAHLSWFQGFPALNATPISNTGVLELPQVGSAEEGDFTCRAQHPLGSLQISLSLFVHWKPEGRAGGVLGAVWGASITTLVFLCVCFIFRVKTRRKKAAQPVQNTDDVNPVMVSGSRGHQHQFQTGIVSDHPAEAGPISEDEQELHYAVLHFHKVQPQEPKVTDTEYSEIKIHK
# T4 sequence (P20138 18-364 R69G): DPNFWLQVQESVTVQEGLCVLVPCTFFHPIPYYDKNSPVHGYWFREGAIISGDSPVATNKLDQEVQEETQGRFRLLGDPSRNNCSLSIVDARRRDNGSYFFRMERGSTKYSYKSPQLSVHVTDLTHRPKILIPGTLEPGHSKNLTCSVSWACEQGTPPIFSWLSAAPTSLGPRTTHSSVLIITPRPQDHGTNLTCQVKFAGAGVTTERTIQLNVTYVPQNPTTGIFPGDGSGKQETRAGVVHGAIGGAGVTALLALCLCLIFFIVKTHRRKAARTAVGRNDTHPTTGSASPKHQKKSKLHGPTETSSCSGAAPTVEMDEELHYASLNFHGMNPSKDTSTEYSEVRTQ
# T6 sequence (Q9NYZ4 17-499): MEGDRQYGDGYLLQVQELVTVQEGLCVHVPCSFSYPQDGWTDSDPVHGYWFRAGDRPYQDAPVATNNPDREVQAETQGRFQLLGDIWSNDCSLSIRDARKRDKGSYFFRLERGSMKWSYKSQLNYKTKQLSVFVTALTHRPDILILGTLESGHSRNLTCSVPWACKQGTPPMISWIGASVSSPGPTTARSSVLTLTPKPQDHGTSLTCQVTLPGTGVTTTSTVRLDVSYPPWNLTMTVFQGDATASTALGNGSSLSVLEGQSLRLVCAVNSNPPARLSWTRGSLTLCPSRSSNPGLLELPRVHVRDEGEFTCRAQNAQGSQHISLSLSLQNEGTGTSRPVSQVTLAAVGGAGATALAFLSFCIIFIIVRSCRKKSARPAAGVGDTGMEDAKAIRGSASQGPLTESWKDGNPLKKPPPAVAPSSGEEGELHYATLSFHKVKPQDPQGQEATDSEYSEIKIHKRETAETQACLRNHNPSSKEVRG
# T8 sequence (Q9Y286 19-467): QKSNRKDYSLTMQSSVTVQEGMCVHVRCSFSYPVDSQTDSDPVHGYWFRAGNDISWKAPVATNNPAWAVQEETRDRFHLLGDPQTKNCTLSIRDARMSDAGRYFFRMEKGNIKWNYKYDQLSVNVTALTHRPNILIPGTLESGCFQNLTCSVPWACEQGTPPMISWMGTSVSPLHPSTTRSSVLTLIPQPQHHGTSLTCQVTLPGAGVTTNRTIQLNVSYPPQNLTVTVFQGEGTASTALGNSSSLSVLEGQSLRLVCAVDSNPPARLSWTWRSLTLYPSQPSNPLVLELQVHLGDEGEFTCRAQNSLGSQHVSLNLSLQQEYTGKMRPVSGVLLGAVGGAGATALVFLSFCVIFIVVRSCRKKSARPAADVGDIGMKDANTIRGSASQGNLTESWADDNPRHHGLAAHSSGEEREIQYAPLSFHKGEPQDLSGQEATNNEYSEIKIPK
# T7 sequence (Q96PQ1 19-595): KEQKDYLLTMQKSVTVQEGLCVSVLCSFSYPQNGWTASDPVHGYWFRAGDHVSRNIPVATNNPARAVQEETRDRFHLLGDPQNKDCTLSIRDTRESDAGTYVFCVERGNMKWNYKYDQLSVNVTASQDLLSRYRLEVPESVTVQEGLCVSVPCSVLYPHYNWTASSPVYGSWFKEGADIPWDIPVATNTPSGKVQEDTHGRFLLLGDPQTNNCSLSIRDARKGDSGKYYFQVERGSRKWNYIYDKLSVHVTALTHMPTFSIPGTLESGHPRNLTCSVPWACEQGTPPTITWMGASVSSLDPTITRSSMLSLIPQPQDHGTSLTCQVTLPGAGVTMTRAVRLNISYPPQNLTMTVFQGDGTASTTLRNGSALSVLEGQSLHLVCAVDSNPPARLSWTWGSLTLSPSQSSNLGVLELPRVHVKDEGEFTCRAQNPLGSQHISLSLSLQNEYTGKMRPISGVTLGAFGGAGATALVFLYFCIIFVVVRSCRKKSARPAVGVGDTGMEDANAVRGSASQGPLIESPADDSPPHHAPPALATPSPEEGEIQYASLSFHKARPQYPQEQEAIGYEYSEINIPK
binding result (Human Siglec-3),binding result (Human Siglec-5),binding result (Human Siglec-6),binding result (Human Siglec-8),binding result (Human Siglec-10),binding result (Human Siglec-11),binding result (Human Siglec-12),binding result (Human Siglec-7),binding result (Human Siglec-9),Binder
no binding,no binding,no binding,no binding,no binding,no binding,no binding,binds,binds,"antibody 3A11 (antibody, V domains shown, Raised in Balb/c mice; hybridoma supernatants were screened with goat anti-mouse detection, and selected antibodies were also made as chimeric human IgG1 (also with N297Q); also called mAb 3A11) VH: EVQLQQSGTVLARPGASVKMSCKASGYSFTSYWMHWVKQRPGQGLEWIGAIYPGNSDTSYNQKFKDKAKLTAVTSASTAYMELSSLTNEDSAVYYCTTYYRYDGGFDYWGQGTTLTVSS VL: DIQMTQSPKSMSMSVGERVTLSCKASETVGTYVSWYQQKPEQSPKLLIFGASNRNTGVPDRFTGSGSATDFTLTISSVQAEDLADYHCGQSYNYPYTFGGGTKLEIK"
no binding,no binding,no binding,no binding,no binding,no binding,no binding,binds,binds,"antibody 2B4 (antibody, V domains shown, Mouse-derived; also called mAb 2B4) VH: EVQLQQSGTVLARPGASVKMSCKASGYSFTNYWMHWVKQRPGQGLEWIGAIYPGNSDTSYIQKFKGKAKLTAVTSASTAYMELSSLTNEDSAVYYCTTYYRYDGGFDYWGQGTTLTVSS VL: DIVMTQSPKSMSMSVGERVTLSCKASENVDTYVSWYQQKPDQSPKLLLYGASNRNTGVPDRFTGSGSATDFTLTISNVQAEDLADYHCGQSYSQPYTFGGGTKLEIK"
no binding,no binding,no binding,no binding,no binding,no binding,no binding,binds,binds,"antibody 1H9 (antibody, V domains shown, Mouse-derived; also called mAb 1H9) VH: QVQLQQSGAELVRPGASVKLSCKAMGNTFTDYEMHWVKQTPVHGLEWIGAIHPGSGGTVYNQKFRGKAALTADKSSSTAYMELSSLTSEDSAVYYCTREVSGTVYWGQGTTLTVSS VL: DIVMTQAAFSNPVTLGTSASISCRSSKSLLHSNGITYLFWYLQKPGQSPQLLIYQMSNLASGVPDRFSSSGSGTDFTLRISRVEAEDVGVYYCAQNLELPWTFGGGTKLEIK"
